In the data set the target is SSB single-stranded DNA-binding protein (Escherichia coli, UniProt P0AGE0 P0AGE0:2-178). Briefly: FP; complex of 5 nM Cy5-dT15 with 20 nM SSB, disrupted by compounds; 25 mM MOPS pH 7.5, 1.25 mM MgCl2. As to conditions: tags: Promega; chain copies: 4; label: 5'-Cy5.
Chain of SSB single-stranded DNA-binding protein (P0AGE0 2-178, one chain of several): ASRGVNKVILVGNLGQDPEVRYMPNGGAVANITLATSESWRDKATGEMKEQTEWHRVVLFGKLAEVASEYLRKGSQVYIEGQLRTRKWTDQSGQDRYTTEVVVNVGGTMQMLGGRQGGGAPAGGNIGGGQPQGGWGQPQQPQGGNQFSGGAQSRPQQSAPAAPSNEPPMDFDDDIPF

Protocol: The Escherichia coli SSB assay was performed in a total volume of 20.2 μl in 384-well, flat-bottom, low volume, black microplates (Greiner Bio-One).
For IC₅₀ determination, assays were performed with 60 μl total volume in black flat bottomed 384-well microplates (Corning). First, 3.0 μl of DMSO or compound dissolved in DMSO was added, such that the final concentration of DMSO was 5% (v/v) in each assay.

Regarding TTTTTTTTTTTTTTT (ssDNA) [Cy5-dT15], the binding result was “binds”.

Source of the values: US20140227225, “HCV Helicase Inhibitors and Methods of Use Thereof” (UWM RESEARCH FOUNDATION, INC., published 2014).
